Molecular target: human VWF-A2 fragment (human)

Sequence of human recombinant wild-type complement factor H (P08603 19-1231): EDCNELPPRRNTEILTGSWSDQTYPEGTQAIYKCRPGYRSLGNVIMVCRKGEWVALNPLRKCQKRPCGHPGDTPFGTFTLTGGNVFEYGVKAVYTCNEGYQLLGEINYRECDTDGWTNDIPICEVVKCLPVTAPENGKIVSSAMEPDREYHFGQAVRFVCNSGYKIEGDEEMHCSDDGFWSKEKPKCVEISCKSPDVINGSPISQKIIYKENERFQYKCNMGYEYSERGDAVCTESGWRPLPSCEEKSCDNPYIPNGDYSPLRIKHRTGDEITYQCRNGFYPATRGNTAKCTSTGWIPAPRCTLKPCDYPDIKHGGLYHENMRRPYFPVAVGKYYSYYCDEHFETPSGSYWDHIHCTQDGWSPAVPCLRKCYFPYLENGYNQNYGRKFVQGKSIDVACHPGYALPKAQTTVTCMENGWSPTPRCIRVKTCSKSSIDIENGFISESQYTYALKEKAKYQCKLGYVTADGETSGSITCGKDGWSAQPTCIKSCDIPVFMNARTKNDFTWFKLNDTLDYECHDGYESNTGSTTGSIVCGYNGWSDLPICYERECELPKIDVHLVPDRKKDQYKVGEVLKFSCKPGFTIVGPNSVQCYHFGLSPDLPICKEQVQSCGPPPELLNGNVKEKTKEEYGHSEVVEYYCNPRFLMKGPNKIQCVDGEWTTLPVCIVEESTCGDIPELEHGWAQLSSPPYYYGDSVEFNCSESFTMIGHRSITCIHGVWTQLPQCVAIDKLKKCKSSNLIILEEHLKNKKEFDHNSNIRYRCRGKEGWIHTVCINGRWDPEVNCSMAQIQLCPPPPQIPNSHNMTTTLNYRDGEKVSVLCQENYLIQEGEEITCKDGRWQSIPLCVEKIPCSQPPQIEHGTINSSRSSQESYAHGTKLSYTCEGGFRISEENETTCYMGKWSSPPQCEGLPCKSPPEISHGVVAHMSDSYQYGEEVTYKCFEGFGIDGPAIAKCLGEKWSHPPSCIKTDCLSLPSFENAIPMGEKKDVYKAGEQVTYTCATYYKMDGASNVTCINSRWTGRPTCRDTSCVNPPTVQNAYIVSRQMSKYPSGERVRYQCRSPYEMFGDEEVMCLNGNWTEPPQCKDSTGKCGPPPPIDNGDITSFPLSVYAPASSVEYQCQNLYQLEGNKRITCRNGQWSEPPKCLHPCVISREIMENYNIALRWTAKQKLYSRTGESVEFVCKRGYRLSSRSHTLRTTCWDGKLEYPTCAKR

human recombinant W1183R complement factor H (from UniProt P08603 19-1231) (natural protein)
optical tweezer pulling of VWF-A2 (Avi-His/SpyTag, biotinylated construct) with 1.0 μM W1183R-CFH: contour length Lc (no CFH: 55,3 nm): 31.8 nm
optical tweezer pulling of VWF-A2 with 1.0 μM W1183R-CFH: energy barrier position γ, Bell-Evans fit (no CFH: 0.71 nm): 1.38 nm
optical tweezer pulling of VWF-A2 with 1.0 μM W1183R-CFH: persistent length Lp (no CFH: 0.28 nm): 0.38 nm
optical tweezer pulling of VWF-A2 with 1.0 μM W1183R-CFH: unstressed unfolding rate ku0, Bell-Evans fit (no CFH: 0.15 s^-1): 0.034 s⁻¹

human recombinant wild-type complement factor H (from UniProt P08603 19-1231) (natural protein)
optical tweezer pulling of VWF-A2 (Avi-His/SpyTag, biotinylated construct) with 1.0 μM WT-CFH: contour length Lc (no CFH: 55,3 nm): 40 nm
optical tweezer pulling of VWF-A2 with 1.0 μM WT-CFH: energy barrier position γ, Bell-Evans fit (no CFH: 0.71 nm): 1.88 nm
optical tweezer pulling of VWF-A2 with 1.0 μM WT-CFH: persistent length Lp (no CFH: 0.28 nm): 0.38 nm
optical tweezer pulling of VWF-A2 with 1.0 μM WT-CFH: unstressed unfolding rate ku0, Bell-Evans fit (no CFH: 0.15 s^-1): 0.017 s⁻¹

Reference: article PMC13123425
